The results in this text go back to PMC13276077.

Data set [1] concerns the target HisMBP-DNMT3A 1-427 (UniProt Q9Y6K1 1-427). Briefly: EMSA; 20 mM HEPES pH 7.5, 75 mM NaCl, 125 mM KCl, 50 uM EDTA, 2.5 mM beta-mercaptoethanol, 5% glycerol, BSA, 1.58 uM 47 bp competitor DNA (nucleosome assays; absent with free DNA), room temperature 30 min. To be noted: protein: recombinant; tags: His-MBP; label: 5' 6-FAM; blunt. On the technique in general: A gel shift assay detects complexes by their altered migration in electrophoresis.

For data set [2], the target named is HisMBP-MeCP2 205-257 (DIR) (Homo sapiens, UniProt P51608 205-257). Described as above. Conditions: protein: recombinant; tags: His-MBP; label: 5' 6-FAM; blunt.
The target of data set [3] is HisMBP-MeCP2 272-309 (Homo sapiens, UniProt P51608 272-309). The description is as above. Conditions: protein: recombinant; tags: His-MBP; label: 5' 6-FAM; blunt.
Data set [4] deals with HisMBP-MeCP2 205-309 (Homo sapiens, UniProt P51608 205-309). The description is as above. To be noted: protein: recombinant; tags: His-MBP; label: 5' 6-FAM; blunt.
The target of data set [5] is HisMBP-MeCP2 258-309 (Homo sapiens, UniProt P51608 258-309). The data set is described as above. Conditions: protein: recombinant; tags: His-MBP; label: 5' 6-FAM; blunt.
For data set [6], the target named is HisMBP-DNMT3A 1-427 K54A K56A (UniProt Q9Y6K1 1-427, K54A;K56A). The data set is described as above. Conditions: protein: recombinant; tags: His-MBP; label: 5' 6-FAM; blunt.
Chain of HisMBP-DNMT3A 1-427 K54A K56A (Q9Y6K1 1-427 K54A/K56A): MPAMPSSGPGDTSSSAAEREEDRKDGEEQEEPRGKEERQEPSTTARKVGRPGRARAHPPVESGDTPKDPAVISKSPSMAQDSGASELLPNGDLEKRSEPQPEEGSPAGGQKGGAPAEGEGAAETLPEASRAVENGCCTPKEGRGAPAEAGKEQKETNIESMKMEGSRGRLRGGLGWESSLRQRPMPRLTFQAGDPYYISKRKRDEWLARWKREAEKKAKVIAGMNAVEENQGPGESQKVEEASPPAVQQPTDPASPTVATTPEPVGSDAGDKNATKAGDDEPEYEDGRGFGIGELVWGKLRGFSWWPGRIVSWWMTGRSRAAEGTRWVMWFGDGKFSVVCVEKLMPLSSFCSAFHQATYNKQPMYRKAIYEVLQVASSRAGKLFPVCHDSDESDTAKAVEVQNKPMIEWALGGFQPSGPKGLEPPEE
In data set [7] the target is HisMBP-MeCP2 162-309 (Homo sapiens, UniProt P51608 162-309). The data set is described as above. To be noted: protein: recombinant; tags: His-MBP; label: 5' 6-FAM; blunt.
For data set [8], the target named is MeCP2 MBD;histone octamer (Homo sapiens;Homo sapiens, UniProt P51608;P0C0S8;P62807;P68431;P62805 77-167;2-130;2-126;2-136;2-103, |H3.1 C96S;C110A). Briefly: EMSA; 20 mM HEPES pH 7.5, 75 mM NaCl, 125 mM KCl, 50 uM EDTA, 2.5 mM beta-mercaptoethanol, 5% glycerol, BSA, 1.58 uM 47 bp competitor DNA (nucleosome assays); absent w.
Data set [9] addresses MeCP2 full-length, e2 isoform;histone octamer (Homo sapiens;, UniProt P51608;P0C0S8;P62807;P68431;P62805 1-486;2-130;2-126;2-136;2-103, |H2B T115C;H3.1 C96S;C110A). Described as above.
Data set [10] deals with MeCP2 MBD;histone octamer, tailless H3 (Homo sapiens;Homo sapiens, UniProt P51608;P0C0S8;P62807;P68431;P62805 77-167;2-130;2-126;26-136;2-103, |H3.1 del1-24;A25C;C96S;C110A). The experiment in a line: EMSA; H3-tailless histone octamer; 20 mM HEPES pH 7.5, 75 mM NaCl, 125 mM KCl, 50 uM EDTA, 2.5 mM beta-mercaptoethanol, 5% glycerol, BSA, 1.58 uM 47 bp competitor DNA (nucleosome assays); absent w.

Data set [11] has as its target MeCP2 MBD;histone octamer, H3Kc27me3 (Homo sapiens;Homo sapiens, UniProt P51608;P0C0S8;P62807;P68431;P62805 77-167;2-130;2-126;2-136;2-103, |H3.1 K27C (trimethyl-lysine analogue, Kc27me3);C96S;C110A). The experiment in a line: EMSA; H3K27me3 (H3Kc27me3) histone octamer; 20 mM HEPES pH 7.5, 75 mM NaCl, 125 mM KCl, 50 uM EDTA, 2.5 mM beta-mercaptoethanol, 5% glycerol, BSA, 1.58 uM 47 bp competitor DNA (nucleosome assays); absent w.

Data set [12] has as its target MeCP2 full-length, e2 isoform;histone H1.0 1-97;histone octamer (Homo sapiens;Homo sapiens;, UniProt P51608;P07305;P0C0S8;P62807;P68431;P62805 1-486;1-97;2-130;2-126;2-136;2-103, ||H2B T115C;H3.1 C96S;C110A). The experiment in a line: EMSA; H1.0 residues 1-97 pre-bound (chromatosome); 20 mM HEPES pH 7.5, 75 mM NaCl, 125 mM KCl, 50 uM EDTA, 2.5 mM beta-mercaptoethanol, 5% glycerol, BSA, 1.58 uM 47 bp competitor DNA (nucleosome assays); absent w.

Data set [13] deals with MeCP2 full-length, e2 isoform;histone H1.0 25-97;histone octamer (Homo sapiens;Homo sapiens;, UniProt P51608;P07305;P0C0S8;P62807;P68431;P62805 1-486;25-97;2-130;2-126;2-136;2-103, ||H2B T115C;H3.1 C96S;C110A). Briefly: EMSA; H1.0 residues 25-97 pre-bound (chromatosome); 20 mM HEPES pH 7.5, 75 mM NaCl, 125 mM KCl, 50 uM EDTA, 2.5 mM beta-mercaptoethanol, 5% glycerol, BSA, 1.58 uM 47 bp competitor DNA (nucleosome assays); absent w.

Chain of HisMBP-DNMT3A 1-427 (Q9Y6K1 1-427): as the sequence (Q9Y6K1 1-427 K54A/K56A) above, with A54K, A56K counted along it

B1: 40 bp dsDNA (dsDNA)
DNA 1: AATACGCGGCCGCCCTGGAGAATCCCGGTGCCGAGGCCGC
DNA 2: GCGGCCTCGGCACCGGGATTCTCCAGGGCGGCCGCGTATT
The Kd is the free concentration of one partner at which half of the binding sites on the other are occupied at equilibrium, for simple one-to-one binding. As for B1, the Kd in [1] stood at 87.8 ± 5.2 nM; in data set [2], 216 ± 9.2 nM; in [4], 77.5 ± 4.8 nM; in [5], 167 ± 8.5 nM; in [6], 367 ± 27.5 nM; in [7], 31.6 ± 1.7 nM. Also, the binding result in data set [3] was “no binding”.

B2: 15-N601-15 nucleosome 81 meCpA (nucleosome)
DNA 1: ATGGAACACATTGCACAGGATGTATATATCTGACACGTGCCTGGAGACTAGGGAGTAATCCCCTTGGCGGTTAAAACGCGGGGGACAGCGCGTACGTGCGTTTAAGCGGTGCTAGAGCTGTCTACGACCAATTGAGCGGCCTCGGCACCGGGATTCTCCAGGGCGGCCGCGTATT
DNA 2: AATACGCGGCCGCCCTGGAGAATCCCGGTGCCGAGGCCGCTCAATTGGTCGTAGACAGCTCTAGCACCGCTTAAACGCACGTACGCGCTGTCCCCCGCGTTTTAACCGCCAAGGGGATTACTCCCTAGTCTCCAGGCACGTGTCAGATATATACATCCTGTGCAATGTGTTCCAT
modifications: linker meCpA 81 bp from dyad
As to B2, the Kd in data set [8] is 424 nM; in [9] it was 141 nM; in [10], 334 nM; in data set [11], 442 nM; in data set [12] it was 382 nM; in data set [13], 295 nM.
